{"source": "paper PMC5763148", "assay_in_all_cases": "SPR", "key": {"[1]": {"biological_target": "T1, murine CCL17 (mCCL17, TARC) (Mus musculus, UniProt Q9WUZ6 24-93)", "T1 sequence": "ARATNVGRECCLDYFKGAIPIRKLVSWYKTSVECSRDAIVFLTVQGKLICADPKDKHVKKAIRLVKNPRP"}, "[2]": {"biological_target": "human CCL17 (hCCL17, TARC) (Homo sapiens, UniProt Q92583 24-94)", "sequence (Q92583 24-94)": "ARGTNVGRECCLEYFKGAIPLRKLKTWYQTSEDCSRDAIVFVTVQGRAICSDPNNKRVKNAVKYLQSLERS"}, "[3]": {"biological_target": "T1, murine CCL17 (mCCL17, TARC)", "remark": "listed apart in the source"}}, "data": [{"binder": "GGGAGGACGAUGCGGGAGCAGCAUUUGUGGUUUCCCGAUCGCUUCCC (structured_RNA, 2'-fluoro pyrimidines)", "note": "[MF35.47]", "values": [{"measurement": "Kd", "setting": "[1]", "result": "7.5 ± 1.5", "unit": "nM"}, {"measurement": "binding result", "setting": "[2]", "result": "no binding"}]}, {"binder": "GGGGGCGUGUAUGCCAGACCUGCCGAUGUCCUUAAGGUCGACGCUGU (structured_RNA, 2'-fluoro pyrimidines)", "note": "[control aptamer (scrambled MF35.47)]", "values": [{"measurement": "binding result", "setting": "[3]", "result": "no binding"}]}, {"binder": "GGGUCGUCGCGGGUUGGCUCGUAGAUCGGGCCGGUACAGACGACCC (structured_RNA, 2'-fluoro pyrimidines)", "note": "[MF11.46]", "values": [{"measurement": "Kd", "setting": "[1]", "result": "0.9 ± 0.1", "unit": "nM"}, {"measurement": "binding result", "setting": "[2]", "result": "no binding"}]}]}
